Measurements published in patent US20220002429A1, “TUMOR CELL AGGREGATION INHIBITORS' FOR TREATING CANCER” (Northwestern University, priority 2018, published 2022).

System: TN1 PDX tumor cells
Assay: ex vivo aggregation (clustering) assay of dissociated PDX tumor cells, IncuCyte time-lapse imaging
Format: cell-based, human
Details: media supplemented with EGF (10 ng/ml)
Method: Cell clustering assay. Freshly dissociated primary tumor cells in single cell suspension were seeded in collagen type I-coated 96-well plates. The plates were put into the IncuCyte live cell imaging system (Essen BioScience), and live images were taken every 2-4 h for up to one week. The cluster number and size were analyzed by Incucyte ZOOM software (Essen BioScience). In specific experiments, primary tumor cells might be sorted based on the expression of CD44 prior to seeding. In other experiments, seeded tumor cells might be transfected with siRNAs (100 nM) or treated with various inhibitors during the clustering assays. For cell viability analysis during clustering, the IncuCyte Cytotox Red reagent (Essen BioScience) was added to the medium according to the manufacturer's instructions.

B1: EGF: epidermal growth factor supplemented to culture media at 10 ng/ml (protein, UniProt P01133 23-1207, looked up)
Pro-epidermal growth factor: PQHWSCPEGTLAGNGNSTCVGPAPFLIFSHGNSIFRIDTEGTNYEQLVVDAGVSVIMDFHYNEKRIYWVDLERQLLQRVFLNGSRQERVCNIEKNVSGMAINWINEEVIWSNQQEGIITVTDMKGNNSHILLSALKYPANVAVDPVERFIFWSSEVAGSLYRADLDGVGVKALLETSEKITAVSLDVLDKRLFWIQYNREGSNSLICSCDYDGGSVHISKHPTQHNLFAMSLFGDRIFYSTWKMKTIWIANKHTGKDMVRINLHSSFVPLGELKVVHPLAQPKAEDDTWEPEQKLCKLRKGNCSSTVCGQDLQSHLCMCAEGYALSRDRKYCEDVNECAFWNHGCTLGCKNTPGSYYCTCPVGFVLLPDGKRCHQLVSCPRNVSECSHDCVLTSEGPLCFCPEGSVLERDGKTCSGCSSPDNGGCSQLCVPLSPVSWECDCFPGYDLQLDEKSCAASGPQPFLLFANSQDIRHMHFDGTDYGTLLSQQMGMVYALDHDPVENKIYFAHTALKWIERANMDGSQRERLIEEGVDVPEGLAVDWIGRRFYWTDRGKSLIGRSDLNGKRSKIITKENISQPRGIAVHPMAKRLFWTDTGINPRIESSSLQGLGRLVIASSDLIWPSGITIDFLTDKLYWCDAKQSVIEMANLDGSKRRRLTQNDVGHPFAVAVFEDYVWFSDWAMPSVMRVNKRTGKDRVRLQGSMLKPSSLVVVHPLAKPGADPCLYQNGGCEHICKKRLGTAWCSCREGFMKASDGKTCLALDGHQLLAGGEVDLKNQVTPLDILSKTRVSEDNITESQHMLVAEIMVSDQDDCAPVGCSMYARCISEGEDATCQCLKGFAGDGKLCSDIDECEMGVPVCPPASSKCINTEGGYVCRCSEGYQGDGIHCLDIDECQLGEHSCGENASCTNTEGGYTCMCAGRLSEPGLICPDSTPPPHLREDDHHYSVRNSDSECPLSHDGYCLHDGVCMYIEALDKYACNCVVGYIGERCQYRDLKWWELRHAGHGQQQKVIVVAVCVVVLVMLLLLSLWGAHYYRTQKLLSKNPKNPYEESSRDVRSRRPADTEDGMSSCPQPWFVVIKEHQDLKNGGQPVAGEDGQAADGSMQPTSWRQEPQLCGMGTEQGCWIPVSSDKGSCPQVMERSFHMPSYGTQTLEGGVEKPHSLLSANPLWQQRALDPPHQMELTQ
modifications: Pro-epidermal growth factor
notes: epidermal growth factor supplemented to culture media at 10 ng/ml
- cluster formation of TN primary tumor cells: increased cluster formation
